Data: US20140193401A1 (published 2014)

Biological target: pertussis toxin holotoxin (Bordetella pertussis, UniProt P04977 35-269; P04978 31-226; P04979 32-227; P0A3R5 43-152; P04981 36-133)
Assay: cell-based or functional assay

B1: 1B7 Fab (Fab)
chain: DIQMTQSPALMSASPGEKVTMTCSASSSVSFMYWYQQKPRSSPKPWIYLTSNLPSGVPARFSGSGSGTSYSLTISSMEAEDAATYYCQQWSSHPPTFGSGTKLEIKRGGGGSGGGGSGGGGSGGGGSEVQLQQSGSELVRPGASVKLSCKASGYKFTSYWMHWVKQRPGQGLEWIGNIFPGSGSTNYDEKFNSKATLTVDTSSNTAYMQLSSLTSEDSAVYYCTRWLSGAYFDYWGQGTTLTVSSASGA
In the case of B1, the “In Vitro Neutralization (nM), minimum protective concentration, CHO clustering assay” value is reported as 42 nM.
